Drawing on PMC12599243, “Mechanistic insights into DNA binding by BD1 of the TAF1 tandem bromodomain module”, this text covers Kd for one substance.

The test system of the data set is TAF1 tandem bromodomain N1460F (human). Put plainly: EMSA. Conditions: no peptide; EMSA: 50 mM HEPES pH 7.5, 100 mM NaCl, 35 nM DNA, 1 h at 4 C; 6% native PAGE, 0.5x TBE, 100 V on ice. HeLa mononucleosome pulldown (undefined DNA) not listed.

Turning to 147 bp Widom 601 DNA, the Kd was 18.2 µM. That is a double-digit micromolar value.
